Source: paper PMC5942583 (Nature structural & molecular biology, 2018)

Target: 15N-labeled WT 2N4R tau (microtubule-associated protein tau, longest adult isoform) (human, UniProt P10636-8 1-441, 15N-labeled)
Assay: NMR titration

binding result: binds
B1: DnaJA2 (natural protein)
chain: not shown
